Reference: EP4785961A1 (Fortvita Biologics Inc., dated 2025)

How the values were obtained:
[1] = target: HER3 expressed on tumor cell lines (NUGC4, HCC1569, NCI-H508, SW620, HCC827 HER3OX) (UniProt P21860 20-1342, limits assumed); test: cell-based or functional assay
[2] = target: T1, human HER3 (Sino Biological, 10201-H08H) (human, UniProt P21860 20-643); test: BLI (Fortebio Octet Red96e), AHC sensors, HER3-MB3 and antigen each at 100 nM
T1 construct: Bought antigen; also called ErbB3

[3] = target: T2, monkey HER3 (Sino Biological, 90043-K08H) (cynomolgus monkey, UniProt G7PIG5 20-643); test: as above
T2 construct: Bought antigen; also called Cynomolgus monkeys

[4] = target: T3, mouse HER3 (Sino Biological, 51003-M08H) (mouse, UniProt Q61526 20-641); test: as above
T3 construct: Bought antigen; also called Mice

[5] = target: T4, rat HER3 (Sino Biological, 80111-R08H) (rat, UniProt Q62799 20-641); test: as above
T4 construct: Bought antigen
T4 sequence (Q62799 20-641 limits assumed, stated change not applied): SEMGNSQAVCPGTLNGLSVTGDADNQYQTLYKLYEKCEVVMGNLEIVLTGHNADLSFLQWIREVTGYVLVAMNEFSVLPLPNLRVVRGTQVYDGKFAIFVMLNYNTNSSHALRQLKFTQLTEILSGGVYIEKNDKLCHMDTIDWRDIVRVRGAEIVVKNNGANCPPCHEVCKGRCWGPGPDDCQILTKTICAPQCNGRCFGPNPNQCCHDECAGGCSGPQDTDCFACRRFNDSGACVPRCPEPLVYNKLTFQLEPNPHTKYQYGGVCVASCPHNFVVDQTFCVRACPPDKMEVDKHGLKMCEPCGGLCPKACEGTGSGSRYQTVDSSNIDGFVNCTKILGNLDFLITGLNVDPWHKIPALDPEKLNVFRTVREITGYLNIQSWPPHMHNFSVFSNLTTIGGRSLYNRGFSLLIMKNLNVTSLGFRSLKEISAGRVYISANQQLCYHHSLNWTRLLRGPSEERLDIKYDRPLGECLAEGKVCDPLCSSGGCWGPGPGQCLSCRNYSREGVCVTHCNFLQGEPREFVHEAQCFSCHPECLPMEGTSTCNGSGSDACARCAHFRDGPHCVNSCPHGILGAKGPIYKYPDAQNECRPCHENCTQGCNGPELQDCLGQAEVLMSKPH

T3 sequence (Q61526 20-641 limits assumed, stated change not applied): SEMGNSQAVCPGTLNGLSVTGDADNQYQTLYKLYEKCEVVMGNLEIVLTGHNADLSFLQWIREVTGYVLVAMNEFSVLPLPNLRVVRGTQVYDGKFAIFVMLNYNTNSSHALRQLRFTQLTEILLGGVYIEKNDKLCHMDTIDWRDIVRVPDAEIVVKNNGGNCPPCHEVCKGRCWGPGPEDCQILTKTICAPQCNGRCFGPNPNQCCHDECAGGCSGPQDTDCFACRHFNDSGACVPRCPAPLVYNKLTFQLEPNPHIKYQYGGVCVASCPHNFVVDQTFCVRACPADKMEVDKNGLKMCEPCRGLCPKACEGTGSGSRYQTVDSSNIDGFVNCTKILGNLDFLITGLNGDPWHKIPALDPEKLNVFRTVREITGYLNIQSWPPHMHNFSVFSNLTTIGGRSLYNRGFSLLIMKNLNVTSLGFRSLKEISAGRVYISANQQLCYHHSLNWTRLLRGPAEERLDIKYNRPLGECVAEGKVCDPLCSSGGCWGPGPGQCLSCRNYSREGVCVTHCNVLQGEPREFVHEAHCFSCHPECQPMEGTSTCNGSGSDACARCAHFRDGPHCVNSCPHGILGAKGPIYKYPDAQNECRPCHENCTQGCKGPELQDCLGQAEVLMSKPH
T2 sequence (G7PIG5 entry or part of it K08H K08H): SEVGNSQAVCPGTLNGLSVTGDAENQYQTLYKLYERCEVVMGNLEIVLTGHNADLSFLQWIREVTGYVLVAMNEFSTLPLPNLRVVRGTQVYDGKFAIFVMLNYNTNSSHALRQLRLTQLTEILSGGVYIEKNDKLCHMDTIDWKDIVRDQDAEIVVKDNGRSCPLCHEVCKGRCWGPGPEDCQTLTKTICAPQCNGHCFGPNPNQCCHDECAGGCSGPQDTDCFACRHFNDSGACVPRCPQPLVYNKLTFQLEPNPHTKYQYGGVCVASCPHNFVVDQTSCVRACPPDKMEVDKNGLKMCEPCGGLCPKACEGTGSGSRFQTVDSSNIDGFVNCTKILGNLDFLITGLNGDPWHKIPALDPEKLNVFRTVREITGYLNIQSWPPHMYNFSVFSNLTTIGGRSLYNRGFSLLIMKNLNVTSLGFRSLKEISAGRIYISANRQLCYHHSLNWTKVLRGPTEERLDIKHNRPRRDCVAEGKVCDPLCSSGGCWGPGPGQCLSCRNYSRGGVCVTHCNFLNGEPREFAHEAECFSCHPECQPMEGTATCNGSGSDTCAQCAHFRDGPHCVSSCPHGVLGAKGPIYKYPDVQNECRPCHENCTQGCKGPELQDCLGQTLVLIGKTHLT

B1: HER3-MB3 (patritumab-MB3) antibody-drug conjugate (antibody, human IgG1, kappa, V domains shown)
VH: QVQLQQWGAGLLKPSETLSLTCAVYGGSFSGYYWSWIRQPPGKGLEWIGEINHSGSTNYNPSLKSRVTISVETSKNQFSLKLSSVTAADTAVYYCARDKWTWYFDLWGRGTLVTVSS
VL: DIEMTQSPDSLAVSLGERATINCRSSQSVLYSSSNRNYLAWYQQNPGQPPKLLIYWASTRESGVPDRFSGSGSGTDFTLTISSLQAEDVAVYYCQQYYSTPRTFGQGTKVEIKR
modifications: drug-linker MB3 (payload MB1) conjugated to cysteines after TCEP reduction; conjugated positions not given; drug-linker MB3 (payload MB1) conjugated to cysteines after TCEP reduction; n mainly 8, average DAR 7.56; conjugated positions not given
notes: Antibody-drug conjugate; also called HER3-ADC
IC50 of in vitro killing, HCC1569 tumor cell line (3D culture, 7 days, Cell-Titer) [1]: 0.07 nM
IC50 of in vitro killing, NUGC4 tumor cell line (3D culture, 7 days, Cell-Titer) [1]: 0.55 nM
Kd [2]: 2.42 nM
koff [2]: 0.000463 s⁻¹
kon [2]: 191000 M⁻¹ s⁻¹
Kd [3]: 2.55 nM
koff [3]: 0.000562 s⁻¹
kon [3]: 221000 M⁻¹ s⁻¹
Kd [4]: 45.8 nM
koff [4]: 0.00989 s⁻¹
kon [4]: 216000 M⁻¹ s⁻¹
Kd [5]: 38.8 nM
koff [5]: 0.00615 s⁻¹
kon [5]: 158000 M⁻¹ s⁻¹
